We go through two proteins from publication PMC9253678, “Computer-Aided Design of α-L-Rhamnosidase to Increase the Synthesis Efficiency of Icariside I” (Frontiers in Bioengineering and Biotechnology, 2022).

Substrate in this series: COc1ccc(-c2oc3c(CC=C(C)C)c(O[C@@H]4O[C@H](CO)[C@@H](O)[C@H](O)[C@H]4O)cc(O)c3c(=O)c2O[C@@H]2O[C@@H](C)[C@H](O)[C@@H](O)[C@H]2O)cc1
As to the kind of experiment: HPLC of icariside I formation, Michaelis-Menten nonlinear fit. In kind it is biochemical, Thermotoga petrophila. Conditions: pH 4.6, icariin 0.1–4 mg/ml. From the text: HPLC of icariside I formation, Michaelis-Menten nonlinear fit on […]

Where [1] appears, read: optimal conditions of the mutant: 70°C.
[2] abbreviates: optimal conditions of the mutant: 80°C.

B1: TpeRha (Thermotoga petrophila RKU-1; D506A/K579A) (protein)
chain: MIQACDLRCEYLTSPVLGLDVIPRFSWRLKGNGKKQTRYKIIVSDNFDDIERGIGNVWESEKDSSKNLNIEYEGPKLKAYKGYYWRVKLWDEKENGPWSETAYFEMGPLEDWRGKWITMPSPLSFKDPAHRHELFYAMYFRKEFLLNKEVEKARVYVSGLGVYELHLNGKRVGNNVLDPAPTDYNKVALYSTYDVTQYLTTGKNTIGVILGNGRHIRDYGYSKPKLYLQLLVFYKDGSREFICSDETWKVSHGPLKENGIYFGEVYDARDEISGWDSPGFDDRNWSEVEIVEGPSLKAQLIPVIRVCEVIKPKRLWLSSRGTFIVDFGKNISGWVKLRVNNGKRGEKIIIRYAEVLDPSMDRLDTRNLRLARATDEYILKGQGVEIYEPRFTYHGFRYVEVEDYPGTLTSDNIEAMFVHTDVEKVGDFACSSELLNKIHSCVVNSQLANLMGIPTDCPQRDERMGWLGDAQLTVEEAMYNFDMAAFYTKYLMDIKLSQKEDGSISAVAPPYWKRYPSDPAWGTAYATILWYLYFFYEDRRVLEEHYDSLKRYVEFLRKNSPNHLTKLGQHGDWCPPGDAFPKRTPLILTSTWYYYHDTLILSEIAKILGKKEDEHEYRKLAGEIKEAFNRHFLRKVEDHTGRIVCFYRGIKLSPKDRIPTTQTCNVLPLWNKMVPEECREDVFKVLERLIEVDNDTHFDTGIVGTRYILEVLSENGRKDLALKLLLKEDYPSFGYMIKNGATTLWERWEKLEGTGMNSHNHVMLGSVDTWFYKYLSGIKPVAPGWKKIRIEPYFADQIDFVSAKIKTPNGSLEVSWKKQNKEYEIQIIIPVNTVGIFAVPESFKVSAINSKQVSYPSEFELEPGAYNIVLERVREC
notes: codon-optimized synthetic gene in pET-28a, E. coli BL21(DE3), Ni-NTA purified (His tag of vector); model domains span 1-861
A word on the Km: it is the substrate concentration at which the rate is half of its maximum. One may read the Vmax as the top rate of the reaction or transport when substrate is in excess. Usually kcat stands for the maximal rate divided by the concentration of active sites. By kcat/Km is commonly meant the second-order rate constant that governs catalysis at low substrate concentration. For B1, under setting [1], the Km amounted to 1.39 ± 0.45 µM, the Vmax was found to be 1.37 µM/min, the turnover number (kcat) came to 5.68e-05 s⁻¹ and the catalytic efficiency (kcat/Km) worked out at 40.9 M⁻¹ s⁻¹.

B2: TpeRha (Thermotoga petrophila RKU-1; H570A/K579A) (protein)
chain: MIQACDLRCEYLTSPVLGLDVIPRFSWRLKGNGKKQTRYKIIVSDNFDDIERGIGNVWESEKDSSKNLNIEYEGPKLKAYKGYYWRVKLWDEKENGPWSETAYFEMGPLEDWRGKWITMPSPLSFKDPAHRHELFYAMYFRKEFLLNKEVEKARVYVSGLGVYELHLNGKRVGNNVLDPAPTDYNKVALYSTYDVTQYLTTGKNTIGVILGNGRHIRDYGYSKPKLYLQLLVFYKDGSREFICSDETWKVSHGPLKENGIYFGEVYDARDEISGWDSPGFDDRNWSEVEIVEGPSLKAQLIPVIRVCEVIKPKRLWLSSRGTFIVDFGKNISGWVKLRVNNGKRGEKIIIRYAEVLDPSMDRLDTRNLRLARATDEYILKGQGVEIYEPRFTYHGFRYVEVEDYPGTLTSDNIEAMFVHTDVEKVGDFACSSELLNKIHSCVVNSQLANLMGIPTDCPQRDERMGWLGDAQLTVEEAMYNFDMAAFYTKYLMDIKLSQKEDGSISDVAPPYWKRYPSDPAWGTAYATILWYLYFFYEDRRVLEEHYDSLKRYVEFLRKNSPNHLTKLGQAGDWCPPGDAFPKRTPLILTSTWYYYHDTLILSEIAKILGKKEDEHEYRKLAGEIKEAFNRHFLRKVEDHTGRIVCFYRGIKLSPKDRIPTTQTCNVLPLWNKMVPEECREDVFKVLERLIEVDNDTHFDTGIVGTRYILEVLSENGRKDLALKLLLKEDYPSFGYMIKNGATTLWERWEKLEGTGMNSHNHVMLGSVDTWFYKYLSGIKPVAPGWKKIRIEPYFADQIDFVSAKIKTPNGSLEVSWKKQNKEYEIQIIIPVNTVGIFAVPESFKVSAINSKQVSYPSEFELEPGAYNIVLERVREC
notes: as for B1
Consider B2, for which, under setting [2], the Km stood at 0.93 ± 0.08 µM, the Vmax came to 5.56 µM/min, the kcat was 0.000118 s⁻¹ and the specificity constant (kcat/Km) worked out at 127 M⁻¹ s⁻¹.
